{
  "source": "patent US12466878",
  "about": "(dated 2025)",
  "target": "HLA-A*02:01 (human;)",
  "experiment": "ELISA",
  "data": [
    {"binder": "KIQEILTQV", "note": "[IGF2BP3-001 peptide KIQEILTQV (SEQ ID NO: 1)]", "values": [
      {"measurement": "Kd", "result": 0.874, "unit": "nM"}
    ]}
  ]
}
